What all share (conditions): both partners purified
Experiment [1] has as its target T1, Gelatin-binding domain of human plasma fibronectin (human).
T1 construct: also called GBD; source: bought: Sigma-Aldrich
In words: SPR. A general note: SPR reads the build-up and loss of mass on a sensor chip optically.

The target in experiment [2] is T1, Gelatin-binding domain of human plasma …. In words: SEC-MALS; mixtures of Lig protein and GBD on Superose 6, 20 mM HEPES, 150 mM NaCl, pH 7.5.
Experiment [3] shares this target. In words: ITC; GBD in the cell (1 ml), Lig protein in the syringe (250 µl), 25 injections of 10 µl, 25°C, Tris buffer with 100 µM CaCl2; independent binding model. In general terms: ITC needs no label: the signal is the heat of the interaction.
For experiment [4] the target is unchanged. Kind of experiment: ELISA.
The target is the same in experiment [5]. In words: ITC; GBD in the cell (1 ml), Lig protein in the syringe (250 µl), 25 injections of 10 µl, 25°C, Tris buffer with 100 µM CaCl2; independent binding model. This is another data set of the same source.

B1: LigAVar7'-8 (domain or fragment)
chain: LTVSNTNAKRGLGSTLKQGTVKVTASMGGIEDSVDFTVTQATLTSIEVSPTRASIAKGMTQKFTATGIFTDHSKKNITEQVTWKSSSKALSMLNAPGEEGTGKAIAVGKHYYYCNLRKTFRENRYYRYSRNSYFN
modifications: biotin (in the ELISA)
For B1, in experiment [1], the koff (commonly a measure of how fast the partners let go of each other) amounted to 0.00501 s⁻¹ and the kon (as a rule, the rate constant with which the complex forms) is 750 M⁻¹ s⁻¹. In addition, the stoichiometry N (in general, the number of molecules, sites or subunits per partner or assembly) in experiment [2] is 0.95 GBD: Lig. Moreover, in experiment [3], binding was characterised by a dissociation constant (Kd) of 6750 ± 110 nM, the dH was -28.6 ± 5.14 kcal/mol and the “stoichiometry N” value was 1.01 ± 0.04 Lig: GBD.

B2: LigBCen7'-12 (domain or fragment)
chain: AEITNTSGSKGITNTLTPGSSEISAALGSIKSSKVILKVTPAQLISIAVTPINPSVAKGLIRQFKATGTYTDHSVQDVTALATWSSSNPRKAMVNNVTGSVTTVATGNTNIKATIDSISGSSVLNVTPALLTSIEITPTINSITHGLTKQFKATGIFSDKSTQNLTQLVTWISSDPSKIEIENTSGKKGIATASKLGSSNIKAVYKFIQSSPIPITVTDLKLKSITISPSSSSIAKGLTQQFKAIGTFIDGSEQEITNLVTWYSSKSDVAPINNAANEKGLATALSIGSSDIYAIYNSISSNKINFNVSAATLDSIKINPVNNNIAKGLTQQYTALGVYSDSTIQDISDSVTWSSSNSSSISISNSTETKGKATALQIGNSKITATYNSISENIDITVSAATLSSISISPINTNINTTVSKQFFAVGTYSDGTKADLTSSVTWSSSNQSQAKVSNASETKGLVTGIASGNPTIIATYGSVSGNTILTVNKTDTI
modifications: biotin (in the ELISA)
B2: the results for the Kd in experiment [4] and in experiment [3] were 49 ± 7 nM and 49 ± 2 nM, respectively. Further, the figures for the “stoichiometry N” value in experiment [2] and in experiment [3] were 3.03 GBD: Lig and 0.33 ± 0.02 Lig: GBD, respectively. In experiment [3], this molecule displayed a dH of -95.7 ± 3.85 kcal/mol.

B3: LigAVar13 (domain or fragment)
chain: ITISLSSISKTKGSTHQFKATGKFENGAEIDLTELVTWSSSNPTVVSISNVDDERGLATALSVGSSKISVDYNSISSSIDFEVTPEILASIKTEP
modifications: biotin (in the ELISA)
In experiment [1], B3 returned a koff of 0.0053 s⁻¹ and a kon of 510 M⁻¹ s⁻¹.

B4: Histidine-tagged LigBCen2R (domain or fragment)
chain: TATYNSISENIDITVSAATLSSISISPINTNINATVSKQFFAVGTYSDGTKADLTSSVTWSSSNKSQAKVSNASKTKGLVTGIASGNSIITATYGSVSGNTILTVNKTDTI
B4: in experiment [1], the koff is 0.00923 s⁻¹ and the kon amounted to 4830 M⁻¹ s⁻¹. Also, in experiment [5], the Kd (usually the concentration at which binding is half-saturated) was 1880 ± 90 nM, the dH was -29.2 ± 3.58 kcal/mol and the “stoichiometry N” value was determined as 0.995 ± 0.01.

B5: LigAVar11 (domain or fragment)
chain: FQVTPAKVVSIEVIPNNISFAKGNSYQFKATGIYTDHSEADITEQVTWSSSNPKIASVENTFGSAGLVNTTNIGSTNITAKLSDTVSGASVLNVTPALLRY
modifications: biotin (in the ELISA)
In experiment [1], B5 had a koff of 0.00599 s⁻¹ and a kon of 1190 M⁻¹ s⁻¹.

B6: LigAVar10 (domain or fragment)
chain: LSVTAAELIEIVLDPTSSHKAKGLTENFKATGVFTDNSTKDITDQVTWKSSKTAYAKISNATGSKRVVNAISKGTSHISATLGSISSANATFQVTPAKVV
modifications: biotin (in the ELISA)
Regarding B6, in experiment [1], the koff stood at 0.00506 s⁻¹ and the kon was 1190 M⁻¹ s⁻¹.

Source of the values: publication PMC2892007, “The Terminal Immunoglobulin-Like Repeats of LigA and LigB of Leptospira Enhance Their Binding to Gelatin Binding Domain of Fibronectin and Host Cells” (PLoS ONE, 2010).
